The source of these data is the RNAGym collection of RNA variant scans (doi:10.7554/elife.80360).

First the molecules themselves.
B1: CPEB3 Ribozyme (parent)
chain: GGGGGCCACAGCAGAAGCGUUCACGUCGCGGCCCCUGUCAGAUUCUGGUGAAUCUGCGAAUUCUGCUGU

Variants of B1 are the subject of this series. The series is described as follows: self-cleavage, relative activity (ratio to wild type); higher = more cleavage; co-transcriptional.
With GGGGGCCACAGCAGAAGCGUUCACGUCGCGGCCCCUGUCAGGUUCUGGUGAAUCCGCGAAUUCUGCUGU, the self-cleavage came to 0.492. Then GGGGGCCACAGCAGAAGCGUUCACGUCGCGGCCCCUGUCAGGUUCUGGUGAAUCAGCGAAUUCUGCUGU, with 0.543. For the variant GGGGGCCACAGCAGAAGCGUUCACGUCGCGGCCCCUGUCAGGUCCUGGUGAAUCUGCGAAUUCUGCUGU, the self-cleavage was 0.562.

With GGGGGCCACAGCAGAAGCGUUCACGUCGCGGCCCCUGUCAGGUACUGGUGAAUCUGCGAAUUCUGCUGU, the self-cleavage came out at 0.822. Then GGGGGCCACAGCAGAAGCGUUCACGUCGCGGCCCCUGUCAGUUUCUGGUGAAUCUGCGAUUUCUGCUGU, with 0.436; and GGGGGCCACAGCAGAAGCGUUCACGUCGCGGCCCCUGUCAGUUUCUGGUGAAUCUGCGAGUUCUGCUGU, with 0.74. As for GGGGGCCACAGCAGAAGCGUUCACGUCGCGGCCCCUGUCAGUUUCUGGUGAAUCUGCGACUUCUGCUGU, the figure is 0.219; as for GGGGGCCACAGCAGAAGCGUUCACGUCGCGGCCCCUGUCAGUUUCUGGUGACUCUGCGAAUUCUGCUGU, 0.945; as for GGGGGCCACAGCAGAAGCGUUCACGUCGCGGCCCCUGUCAGUUUCUGGUGAUUCUGCGAAUUCUGCUGU, 0.986. Take GGGGGCCACAGCAGAAGCGUUCACGUCGCGGCCCCUGUCAGUUUCUGGUGAGUCUGCGAAUUCUGCUGU: the self-cleavage worked out at 0.88. As for GGGGGCCACAGCAGAAGCGUUCACGUCGCGGCCCCUGUCAGGUUCUGGUGAAUCUGUGAAUUCUGCUGU, the figure is 0.356; as for GGGGGCCACAGCAGAAGCGUUCACGUCGCGGCCCCUGUCAGUUUCUGGUGAAUCUGUGAAUUCUGCUGU, 0.436; as for GGGGGCCACAGCAGAAGCGUUCACGUCGCGGCCCCUGUCAGGUUCUGGUGAAUCUGCGAGUUCUGCUGU, 0.85. For the variant GGGGGCCACAGCAGAAGCGUUCACGUCGCGGCCCCUGUCAGUUUCUGGUGAAUCUGCGGAUUCUGCUGU, the self-cleavage amounted to 0.965. Then GGGGGCCACAGCAGAAGCGUUCACGUCGCGGCCCCUGUCAGGUUCUGGUGAAUCUGCGAAUUCUCCUGU, with 0.508.

Take GGGGGCCACAGCAGAAGCGUUCACGUCGCGGCCCCUGUCAGGUUCUGGUGAAUCUGCGAAUUCUUCUGU: the self-cleavage worked out at 0.605.

GGGGGCCACAGCAGAAGCGUUCACGUCGCGGCCCCUGUCAGGUUCUGGUGAAUCUGCGAAUUCUACUGU: the self-cleavage is 0.639. As for GGGGGCCACAGCAGAAGCGUUCACGUCGCGGCCCCUGUCAGGUUCUGGUGAAUCUGCGAAUUCUGCUGG, the self-cleavage amounted to 1.03. As for GGGGGCCACAGCAGAAGCGUUCACGUCGCGGCCCCUGUCAGGUUCUGGUGAAUCUGCGAAUUCUGCUGC, the figure is 1.04; as for GGGGGCCACAGCAGAAGCGUUCACGUCGCGGCCCCUGUCAGUUUCUGGUGAAUAUGCGAAUUCUGCUGU, 0.834. Then GGGGGCCACAGCAGAAGCGUUCACGUCGCGGCCCCUGUCAGUUUCUGGUGAAUGUGCGAAUUCUGCUGU, with 0.56; and GGGGGCCACAGCAGAAGCGUUCACGUCGCGGCCCCUGUCAGUUUCUGGUGAAUCUGCGAAUUCUCCUGU, with 0.433. As for GGGGGCCACAGCAGAAGCGUUCACGUCGCGGCCCCUGUCAGUUUCUGGUGAAUCUGCGAAUUCUUCUGU, the figure is 0.481. Regarding GGGGGCCACAGCAGAAGCGUUCACGUCGCGGCCCCUGUCAGUUUCUGGUGAAUCUGCGAAUUCUACUGU, the self-cleavage came out at 0.661. Then GGGGGCCACAGCAGAAGCGUUCACGUCGCGGCCCCUGUCAGGUUCUGGUGAAACUGCGAAUUCUGCUGU, with 0.895. Then GGGGGCCACAGCAGAAGCGUUCACGUCGCGGCCCCUGUCAGGUUCUGGUGAAGCUGCGAAUUCUGCUGU, with 0.801. As for GGGGGCCACAGCAGAAGCGUUCACGUCGCGGCCCCUGUCAGGUUCUGGUGAAUCUGCGAAUUCUGCCGU, the figure is 0.957. In the case of GGGGGCCACAGCAGAAGCGUUCACGUCGCGGCCCCUGUCAGGUUCUGGUGAAUCUGCGAAUUCUGCGGU, the self-cleavage is 0.897. As for GGGGGCCACAGCAGAAGCGUUCACGUCGCGGCCCCUGUCAGGUUCUGGUGAAUCUGCGAAUUCUGCAGU, the figure is 0.86; as for GGGGGCCACAGCAGAAGCGUUCACGUCGCGGCCCCUGUCAGGUUCUGGUGAAUCUGCGAAUUCUGGUGU, 0.622. Then GGGGGCCACAGCAGAAGCGUUCACGUCGCGGCCCCUGUCAGGUUCUGGUGAAUCUGCGAAUUCUGUUGU, with 0.93; and GGGGGCCACAGCAGAAGCGUUCACGUCGCGGCCCCUGUCAGGUUCUGGUGAAUCUGCGAAUUCUGAUGU, with 0.558. As for GGGGGCCACAGCAGAAGCGUUCACGUCGCGGCCCCUGUCAGGUUCUGGUGAAUCUGCGAAUUUUGCUGU, the figure is 0.889. On to GGGGGCCACAGCAGAAGCGUUCACGUCGCGGCCCCUGUCAGGUUCUGGUGAAUCUGCGAAUUGUGCUGU, for which the self-cleavage stood at 0.583. As for GGGGGCCACAGCAGAAGCGUUCACGUCGCGGCCCCUGUCAGGUUCUGGUGAAUCUGCGAAUUAUGCUGU, the figure is 0.617. As for GGGGGCCACAGCAGAAGCGUUCACGUCGCGGCCCCUGUCAGUUUCUGCUGAAUCUGCGAAUUCUGCUGU, the figure is 0.947; as for GGGGGCCACAGCAGAAGCGUUCACGUCGCGGCCCCUGUCAGUUUCUGAUGAAUCUGCGAAUUCUGCUGU, 0.968. As for GGGGGCCACAGCAGAAGCGUUCACGUCGCGGCCCCUGUCAGUUUCUGGUGAAUCUGCGAAUUUUGCUGU, the figure is 0.876; as for GGGGGCCACAGCAGAAGCGUUCACGUCGCGGCCCCUGUCAGGUUCUGGUGAAUCUGCGAAUCCUGCUGU, 0.647.
